Earlier results as cited in paper PMC11811815.

Biological target: Usp18 (Mus musculus) (UniProt Q9WTV6)
Chain of UniProt Q9WTV6 (Q9WTV6 whole entry): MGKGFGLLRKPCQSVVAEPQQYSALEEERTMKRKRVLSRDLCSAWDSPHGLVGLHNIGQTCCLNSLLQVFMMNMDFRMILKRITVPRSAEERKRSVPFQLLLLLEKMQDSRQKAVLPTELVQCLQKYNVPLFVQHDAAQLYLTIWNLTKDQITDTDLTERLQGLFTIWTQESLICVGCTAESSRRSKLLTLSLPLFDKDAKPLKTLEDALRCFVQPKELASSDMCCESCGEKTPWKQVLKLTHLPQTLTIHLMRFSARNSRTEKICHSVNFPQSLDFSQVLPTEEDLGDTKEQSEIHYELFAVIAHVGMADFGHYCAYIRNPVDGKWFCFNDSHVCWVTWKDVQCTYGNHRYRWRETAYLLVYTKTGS

Substance: Isg15 (from UniProt Q64339)
- Kd: 1300 nM
